Data from the supplement of paper PMC11136658.

Test system: peptide library, one residue held at a place counted from the Y acceptor
Experiment: relative phosphorylation of the sub-library (ratio to the mean residue at this position); higher = residue favoured
Procedure, shortened: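 Peptide library mixtures, biotinylated and centred on Tyr, each fixed one residue at one position from −5 to +5. Purified recombinant kinases were incubated with them for 90 min in 384-well plates alongside 50 μM ATP and γ-32P-ATP, and the captured, rinsed peptides on streptavidin membranes were measured by phosphorimaging and ImageQuant. Normalization divided each position's intensities by the sum of its 18 randomized residues (16 for the Ser/Thr-free library) and multiplied by that number, so that values give phosphorylation relative to the mean randomized residue.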

EPHA8, construct: aa571-924, human, sequence (P29322 571-924, looked up): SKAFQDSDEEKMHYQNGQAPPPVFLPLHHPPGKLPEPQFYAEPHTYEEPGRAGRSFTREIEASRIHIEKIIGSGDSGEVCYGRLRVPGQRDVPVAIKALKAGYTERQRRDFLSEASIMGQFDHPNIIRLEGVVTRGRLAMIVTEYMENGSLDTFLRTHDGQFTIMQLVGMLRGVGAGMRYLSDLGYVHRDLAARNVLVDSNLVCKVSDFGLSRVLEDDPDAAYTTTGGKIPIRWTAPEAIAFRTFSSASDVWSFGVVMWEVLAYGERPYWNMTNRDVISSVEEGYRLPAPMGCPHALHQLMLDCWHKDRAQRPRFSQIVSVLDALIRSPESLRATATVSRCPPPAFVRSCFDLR
EPHA1, construct: aa568-end, human, sequence (P21709 568-976, looked up): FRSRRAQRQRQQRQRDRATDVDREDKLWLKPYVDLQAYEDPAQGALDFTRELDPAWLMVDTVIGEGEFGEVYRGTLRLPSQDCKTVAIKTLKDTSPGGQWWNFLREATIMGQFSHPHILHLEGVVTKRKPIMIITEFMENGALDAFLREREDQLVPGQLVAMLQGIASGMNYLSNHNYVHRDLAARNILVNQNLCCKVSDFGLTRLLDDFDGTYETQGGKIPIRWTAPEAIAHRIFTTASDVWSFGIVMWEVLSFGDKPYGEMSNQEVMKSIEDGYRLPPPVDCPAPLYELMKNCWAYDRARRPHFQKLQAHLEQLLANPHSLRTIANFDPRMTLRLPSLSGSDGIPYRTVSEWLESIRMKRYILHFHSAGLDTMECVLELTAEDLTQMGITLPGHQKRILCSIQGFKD
EPHA7, construct: aa579-end, human, sequence (Q15375 579-998, looked up): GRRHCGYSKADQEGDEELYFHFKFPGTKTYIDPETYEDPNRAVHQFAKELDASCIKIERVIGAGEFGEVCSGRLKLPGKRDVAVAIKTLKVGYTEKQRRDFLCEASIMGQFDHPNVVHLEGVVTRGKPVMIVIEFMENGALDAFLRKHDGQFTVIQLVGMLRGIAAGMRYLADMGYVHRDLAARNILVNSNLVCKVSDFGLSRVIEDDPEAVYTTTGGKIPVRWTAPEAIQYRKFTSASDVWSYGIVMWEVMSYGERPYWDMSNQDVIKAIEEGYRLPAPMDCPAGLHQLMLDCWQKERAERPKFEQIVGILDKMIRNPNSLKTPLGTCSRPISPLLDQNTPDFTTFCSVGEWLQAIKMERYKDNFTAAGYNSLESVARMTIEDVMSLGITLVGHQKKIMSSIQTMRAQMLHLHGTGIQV

EPHA1, construct: aa568-end, human (from UniProt P21709)
relative phosphorylation
Conditions | at +1 | at +2 | at +3 | at +4 | at +5 | at -1 | at -2 | at -3 | at -4 | at -5
A fixed | 1.63 | 0.704 | 0.7 | 0.747 | 1.08 | 0.615 | 1.22 | 0.904 | 1.25 | 1.1
D fixed | 0.645 | 0.963 | 0.21 | 0.562 | 0.699 | 0.705 | 0.891 | 1.06 | 0.864 | 0.752
E fixed | 1.87 | 1.03 | 0.191 | 0.665 | 0.616 | 0.52 | 1.04 | 1.18 | 1.11 | 0.59
F fixed | 0.853 | 1.68 | 1.4 | 1.27 | 1.17 | 1.37 | 0.531 | 1.16 | 0.936 | 1.1
G fixed | 0.729 | 0.307 | 0.486 | 1.21 | 1.21 | 0.23 | 1.38 | 1.07 | 1.47 | 1.26
H fixed | 0.604 | 0.912 | 0.877 | 1.38 | 0.987 | 0.87 | 1.03 | 1.18 | 0.919 | 0.917
I fixed | 1.41 | 0.997 | 2.57 | 0.732 | 0.92 | 2.74 | 0.716 | 0.784 | 0.853 | 0.941
K fixed | 0.292 | 0.642 | 0.319 | 0.931 | 1.12 | 0.381 | 1 | 0.801 | 0.993 | 1.12
L fixed | 1.15 | 1.18 | 2.29 | 0.816 | 0.955 | 2.38 | 0.789 | 0.803 | 1 | 1.07
M fixed | 1.88 | 1.21 | 1.5 | 1.26 | 0.966 | 1.11 | 0.633 | 0.926 | 0.948 | 0.968
N fixed | 0.276 | 1.17 | 0.385 | 0.726 | 0.773 | 1 | 1.11 | 1.16 | 0.852 | 0.937
P fixed | 0.157 | 0.521 | 1.26 | 1.19 | 1.57 | 0.445 | 1.29 | 0.929 | 1.13 | 1.17
Q fixed | 1.11 | 0.792 | 0.679 | 0.86 | 0.807 | 0.433 | 1.05 | 0.77 | 0.95 | 0.914
R fixed | 0.477 | 1.06 | 0.696 | 1.47 | 1.13 | 0.587 | 1.36 | 1.07 | 1.23 | 1.26
S fixed | 0.799 | 0.697 | 0.488 | 0.739 | 1 | 0.391 | 1.46 | 1.03 | 0.868 | 0.86
T fixed | 0.823 | 0.867 | 0.576 | 0.813 | 0.9 | 1.19 | 0.845 | 0.917 | 0.666 | 0.725
V fixed | 1.93 | 0.974 | 2.03 | 0.73 | 0.853 | 1.43 | 0.821 | 0.78 | 0.827 | 0.913
W fixed | 1.36 | 2.3 | 1.36 | 1.89 | 1.24 | 1.61 | 0.821 | 1.48 | 1.14 | 1.4
pThr fixed | 0.981 | 1.05 | 0.17 | 0.4 | 0.508 | 1.39 | 0.685 | 0.721 | 0.608 | 0.558
pTyr fixed | 1.87 | 2.54 | 0.57 | 0.629 | 0.727 | 0.904 | 0.81 | 0.888 | 0.88 | 0.684

EPHA7, construct: aa579-end, human (from UniProt Q15375)
relative phosphorylation
Conditions | at +1 | at +2 | at +3 | at +4 | at +5 | at -1 | at -2 | at -3 | at -4 | at -5
A fixed | 1.63 | 0.698 | 0.618 | 0.79 | 1.04 | 0.492 | 1.21 | 0.817 | 1.18 | 1.03
D fixed | 0.804 | 1.37 | 0.44 | 0.936 | 0.981 | 2.01 | 1.07 | 1.12 | 1.17 | 1.05
E fixed | 3 | 1.79 | 0.398 | 1.01 | 1.04 | 1.39 | 1.31 | 1.43 | 1.14 | 0.918
F fixed | 0.661 | 1.31 | 1.7 | 1.08 | 1.13 | 0.92 | 0.747 | 1.48 | 1.07 | 1.03
G fixed | 0.476 | 0.39 | 0.464 | 1.21 | 1.12 | 0.251 | 1.15 | 0.953 | 1.34 | 1.19
H fixed | 0.495 | 0.916 | 0.855 | 1.29 | 0.953 | 0.625 | 0.779 | 1.06 | 0.852 | 0.96
I fixed | 1.65 | 1.04 | 2.77 | 0.729 | 0.818 | 2.61 | 0.88 | 1.08 | 0.939 | 1.04
K fixed | 0.271 | 0.522 | 0.329 | 0.822 | 0.809 | 0.3 | 0.926 | 0.591 | 0.875 | 0.993
L fixed | 0.905 | 0.894 | 1.97 | 0.718 | 1.03 | 2.03 | 0.845 | 0.944 | 1.11 | 0.96
M fixed | 1.41 | 0.935 | 1.15 | 1.03 | 0.988 | 0.872 | 0.663 | 0.913 | 0.883 | 0.921
N fixed | 0.429 | 1.21 | 0.479 | 0.793 | 0.815 | 1.99 | 0.985 | 0.995 | 0.772 | 1.1
P fixed | 0.204 | 0.609 | 0.93 | 1.4 | 1.64 | 0.346 | 1.51 | 1.15 | 1.33 | 1.11
Q fixed | 1.08 | 0.742 | 0.692 | 0.778 | 0.782 | 0.439 | 1.09 | 0.706 | 1.04 | 0.94
R fixed | 0.358 | 0.924 | 0.455 | 1.03 | 0.859 | 0.489 | 1.05 | 0.759 | 0.945 | 1.1
S fixed | 0.725 | 0.769 | 0.537 | 0.853 | 0.994 | 0.457 | 1.26 | 0.877 | 0.784 | 0.834
T fixed | 0.803 | 0.994 | 0.615 | 0.904 | 1.01 | 1.1 | 0.921 | 0.895 | 0.673 | 0.851
V fixed | 2.03 | 1.04 | 2.05 | 0.733 | 0.797 | 1.1 | 0.936 | 0.876 | 0.822 | 0.831
W fixed | 1.06 | 1.84 | 1.55 | 1.89 | 1.19 | 0.569 | 0.67 | 1.36 | 1.07 | 1.15
pThr fixed | 1.8 | 2.11 | 0.552 | 0.851 | 0.651 | 2.07 | 0.877 | 0.772 | 0.877 | 0.834
pTyr fixed | 1.98 | 6.7 | 0.866 | 1.14 | 0.865 | 1.94 | 0.896 | 1.02 | 1.08 | 1.12

EPHA8, construct: aa571-924, human (from UniProt P29322)
relative phosphorylation
Conditions | at +1 | at +2 | at +3 | at +4 | at +5 | at -1 | at -2 | at -3 | at -4 | at -5
A fixed | 1.46 | 0.773 | 0.757 | 0.81 | 1.11 | 0.454 | 1.15 | 0.671 | 1.11 | 0.971
D fixed | 0.978 | 1.49 | 0.359 | 0.911 | 1.19 | 1.98 | 1.35 | 1.49 | 1.48 | 1.17
E fixed | 2.64 | 1.84 | 0.346 | 1.02 | 1.34 | 2.03 | 1.77 | 2.17 | 1.74 | 1.13
F fixed | 0.777 | 1.38 | 1.62 | 1.22 | 0.934 | 0.855 | 0.708 | 1.42 | 1.07 | 1.02
G fixed | 0.716 | 0.419 | 0.572 | 1.28 | 1.08 | 0.242 | 1.15 | 0.899 | 1.18 | 1.21
H fixed | 0.624 | 0.838 | 0.819 | 1.11 | 1.1 | 0.672 | 0.853 | 1.03 | 0.87 | 1.06
I fixed | 1.68 | 0.884 | 2.9 | 0.857 | 0.617 | 2.9 | 0.735 | 0.849 | 0.845 | 0.956
K fixed | 0.266 | 0.506 | 0.32 | 0.772 | 0.957 | 0.249 | 0.685 | 0.528 | 0.715 | 0.87
L fixed | 0.814 | 0.891 | 1.71 | 0.778 | 0.721 | 1.54 | 0.792 | 0.651 | 0.901 | 0.949
M fixed | 1.37 | 0.786 | 1.23 | 0.944 | 0.855 | 0.698 | 0.559 | 0.833 | 0.843 | 1.02
N fixed | 0.384 | 1.1 | 0.453 | 0.838 | 0.869 | 1.92 | 1.22 | 1.07 | 0.96 | 1.05
P fixed | 0.293 | 0.783 | 1.11 | 1.39 | 1.72 | 0.391 | 1.4 | 0.927 | 0.974 | 1.08
Q fixed | 1.07 | 0.823 | 0.559 | 0.932 | 0.897 | 0.402 | 1.11 | 0.813 | 1.12 | 0.977
R fixed | 0.318 | 0.723 | 0.453 | 1.05 | 1.14 | 0.288 | 0.778 | 0.688 | 0.818 | 0.884
S fixed | 0.849 | 0.886 | 0.485 | 0.822 | 0.943 | 0.422 | 1.14 | 0.958 | 0.838 | 0.834
T fixed | 0.745 | 0.855 | 0.607 | 0.795 | 0.96 | 1.15 | 0.865 | 0.837 | 0.67 | 0.782
V fixed | 1.7 | 0.914 | 2.1 | 0.81 | 0.644 | 1.11 | 0.947 | 0.728 | 0.779 | 0.849
W fixed | 1.32 | 2.12 | 1.59 | 1.65 | 0.932 | 0.693 | 0.778 | 1.44 | 1.1 | 1.19
pThr fixed | 1.94 | 2.25 | 0.437 | 1.02 | 1.1 | 3.17 | 1.26 | 1.04 | 0.986 | 0.968
pTyr fixed | 4.68 | 7.04 | 1.16 | 1.22 | 1.39 | 2.63 | 1.63 | 1.34 | 1.37 | 1.27
